Assay results from the supplement of paper PMC9170038.

System: MS2 coat protein
Assay: apparent KD of MS2 coat protein; designed switch direction (-1 OFF switch, 1 ON switch): -1; higher = weaker reporter binding
Summary of the method: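 SNAP-549-labelled MS2 coat protein was titrated, doubling from 0.7 or 1.5 nM to 3 µM, over designed RNA switches transcribed on Illumina chips by stalled E. coli RNA polymerase. Runs were done without input, with 200 uM small-molecule ligand, or with an oligonucleotide input. Apparent KD is the per-design median over clusters of curve-fitted normalised fluorescence.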

[1] = input ligand: microRNA oligo, concentration not stated
[2] = Eterna round: R95, input ligand: microRNA oligo, concentration not stated
[3] = Eterna round: R95, input ligand: FMN 200 uM
[4] = Eterna round: R95, input ligand: none

| Sequence | apparent KD of MS2 coat protein (input ligand: FMN 200 uM) [nM] | apparent KD of MS2 coat protein [1] [nM] | apparent KD of MS2 coat protein (input ligand: none) [nM] | apparent KD of MS2 coat protein [2] [nM] | apparent KD of MS2 coat protein [3] [nM] | apparent KD of MS2 coat protein [4] [nM] |
| --- | --- | --- | --- | --- | --- | --- |
| CCGGGCCCGGGAGGAUAUACAUGAGGAUCACCCAUGUGGGCCCGGGCCCGCGGGCCCGGGCCCAUGUAGAAGGCCCGGGCCCGG [-64.8, -64.2 kcal, A 15%] (Eterna round: R96, puzzle: Exclusion NG 2) | 50 | 36.4 | 20.4 | – | – | – |
| CCGGGCGCAGGAUAUACGUGGCCCAAAUAAAUAAUAACCACACAUGAGGAUCACCCAUGUAGAAGGGCGCCCGG [-26.59, -25.61 kcal, A 32%] (Eterna round: R97, puzzle: Exclusion 2) | 116 | – | 49.9 | – | – | – |
| CCGGUAGUAGUCAGGAUAUUCGAUUUUCACCAAGCGAAGAAGGGACAUGAGGAUCACCCAUGUUAGGUGAACGG [Eternabot (L2) Solution 68] (Eterna round: R97, puzzle: Brourd's mod of Exclusion 4) | 196 | – | 37.6 | – | – | – |
| CCGUCCUCAGUUAGGAUAUCUUCCGGAGAACGAAAGGAGAAGGAACAUGAGGAUCACCCAUGUGGCCCGAUGGA [Eternabot (Original) Solution 16] (Eterna round: R97, puzzle: Brourd's mod of Exclusion 4) | 85.3 | – | 29.3 | – | – | – |
| CCGUGGCAAGGAUAUACGUAGGAGAGGAAGGCAAGAGAAGGACAUGAGGAUCACCCAUGUAGAAGGUGCAGAUC [JR_Exclu2_Sub030] (puzzle: Exclusion 2) | – | – | – | 48.3 | – | – |
| CCUAGUUGGUAAGGAUAUCCUACAUUAUUCUGACCCGUGCAAGCUACAUGAGGAUCACCCAUGUGGGAGAAGGUGCGUUAACGU [Design 8] (Eterna round: R96, puzzle: Exclusion NG 2) | 55.7 | 35.2 | 55.1 | – | – | – |
| CCUCAGUAAGGAUAUCAGCUUAUAAGGUUGGUAAUGAGAGCUGAGAAGGUACAUGAGGAUCACCCAUGUUAGUU [JL Zatite mod 6] (puzzle: Exclusion 4) | – | – | – | 26.7 | – | – |
| CCUCAGUAAGGAUAUCAGCUUAUAGAGUUGGUAAUGAGAGCUGAGAAGGUACAUGAGGAUCACCCAUGUUAGUU [JL Zatite mod 3] (puzzle: Exclusion 4) | – | – | – | 23.5 | – | – |
| CCUCCCGCCGUCAGGAUAUGCCGUACCGCUGCGCUACAGAAGGCACUUGAGGAUCACCCAAGUACCCGUGAGGC [salish99_bmod_ex4_r4_010] (Eterna round: R97, puzzle: Brourd's mod of Exclusion 4) | 16.5 | – | 15.7 | – | – | – |
| CCUCGACAUGAGGAUCACCCAUGUGAGGAUAUGACCUUAAAAGCGUGAGCAGUUUCUAUCAGAAGGCGCGUAGG [salish99_ex1_r4_071] (Eterna round: R97, puzzle: Exclusion 1) | 15.9 | – | 16 | – | – | – |
| CCUCUACAUGAGGAUCACCCAUGUGAGGAUAUCAAAGCCGAAGCAAAUCUCCGGCCCAUGAGAAGGUGCAUGGA [EX1 A.9] (Eterna round: R97, puzzle: Exclusion 1) | 87.4 | – | 19.5 | – | – | – |
| CCUCUGUUAGGAUAUGGCAAAGAUGAGACACACCGACAUUGUUAGAAGGGACAUGAGGAUCACCCAUGUCAGCG [Eternabot (L1) Solution 57] (Eterna round: R97, puzzle: Exclusion 4) | 22.8 | – | 21.4 | – | – | – |
| CCUCUUGGGCAAGGAUAUCCUGCGCGGUUCCGGCUCGUGUCUGUCACAUGAGGAUCACCCAUGUGGGAGAAGGUGCCUGCGGUC [Design 79] (Eterna round: R96, puzzle: Exclusion NG 2) | 16.3 | 11.8 | 16.5 | – | – | – |
| CCUGAGGUUUGGUAGAAAACAUGAGGAUCACCCAUGUAUGUGCAGGAUAUCGACCGGCUCGCUGCCGAGAAGGGCAUCUACAUA [Eternabot solution 31] (Eterna round: R96, puzzle: Exclusion NG 3) | 45.4 | 24.8 | 36.9 | – | – | – |
| CCUGUGCUAUAGGAUAUGGCUUAGCAAUAUGCGCCAGAAGGAUAGACAUGAGGAUCACCCAUGUACGACGAAGC [Eternabot (L2) Solution 65] (Eterna round: R97, puzzle: Exclusion 6) | 35.9 | – | 24.3 | – | – | – |
| CCUUGACAUGAGGAUCACCCAUGUGAGGAUAUAGAAUACAUCAUACACUGACCUCCUUCUAGAAGGCACAUCUC [1986#2] (Eterna round: R97, puzzle: Exclusion 1) | 14.1 | – | 15.3 | – | – | – |

| Sequence | apparent KD of MS2 coat protein (input ligand: FMN 200 uM) [nM] | apparent KD of MS2 coat protein [1] [nM] | apparent KD of MS2 coat protein (input ligand: none) [nM] | apparent KD of MS2 coat protein [2] [nM] | apparent KD of MS2 coat protein [3] [nM] | apparent KD of MS2 coat protein [4] [nM] |
| --- | --- | --- | --- | --- | --- | --- |
| CCUUUGUCAGGAUAUCAGAACACGCUCCUAGGGAGCGCAAAUGAGAAGGGACAUGAGGAUCACCCAUGUAAAGA [Arisesat] (puzzle: Exclusion 4) | – | – | – | 41.6 | 318 | 54.8 |
| CGAAGUAGAAACCGAUCCUACAUGAGGAUCACCCAUGUAGCAAGACGUGCACGCGAAGCUCGUCAGACUACCAGAAU [salish99_TOv1_r3_015] (puzzle: Sensor v3, turn-off variant 1) | – | – | – | 257 | 212 | 430 |
| CGACAGGGAGGAUAUACAUGAGGAUCACCCAUGUUCAAGCGUCCUUGAACUACCUCUGGUAGAAGGCCCUAAAG [jl-ex3-4.67 ViennaUCT mod] (Eterna round: R97, puzzle: Exclusion 3) | 44.6 | – | 123 | – | – | – |
| CGACUGUGAGGAUAUGGUGAGUAGUGCCUGAGCGCUGCUCACCAGAAGGCACAUGAGGAUCACCCAUGUAUGAC [Mat - Exclusion 4 - Mod of JL - D8] (puzzle: Exclusion 4) | – | – | – | 72.8 | – | – |
| CGAGCUGCUGUGAGGAUAUACCUAUGGAUACGUGGGUAGAAGGCACAUGAGGAUCACCCAUGUCCUGCAGCUCG [salish99_bmx4_r4_102] (Eterna round: R97, puzzle: Brourd's mod of Exclusion 4) | 313 | – | 51.7 | – | – | – |
| CGAGUGUAAGGAUAUUCGGCACCAGAGAACGAUCUGGCGUAGAAGAAGGUACAUGAGGAUCACCCAUGUGGUUA [Atonte] (puzzle: Exclusion 4) | – | – | – | 114 | – | – |
| CGAUAAUCCAAGGAUAUGCUAGACGAAAGUCUAGCAGAAGGUGGAACAUGAGGAUCACCCAUGUGUCCAAAUCG [Mat - Exclusion 6 - Eli Mod - D27] (Eterna round: R97, puzzle: Exclusion 6) | 22.2 | – | 14.7 | – | – | – |
| CGAUGAGGAGUGAGGAUAUCGUGUUCGAAAGAACGUGAGAAGGCACAUGAGGAUCACCCAUGUGAUUCUUGUCG [Omei Ex4B A18] (Eterna round: R97, puzzle: Brourd's mod of Exclusion 4) | 77.6 | – | 22.2 | – | – | – |
| CGAUGCUCGAGUCCACAUGAGGAUCACCCAUGUCGAGUUAGCGAGGAUAUCGGAGACACAUAGUAUGAGAAGGCGCGAACCUGA [Ex NG3 #20] (Eterna round: R96, puzzle: Exclusion NG 3) | 10 | 11.3 | 13.6 | – | – | – |
| CGAUGCUCGUGGCCACAUGAGGAUCACCCAUGUCGAGUUAGCGAGGAUAUCGGUAGCACAUAUCACGAGAAGGCGCGAACCUGA [Ex NG3 #29] (Eterna round: R96, puzzle: Exclusion NG 3) | 32.3 | 10.9 | 12 | – | – | – |
| CGCCAAAGGAAGGAUAUGCUAGACGAAAGUCUAGCAGAAGGUCCUACAUGAGGAUCACCCAUGUGUCCUAGGCG [Mat - Exclusion 6 - Eli Mod - D10] (Eterna round: R97, puzzle: Exclusion 6) | 49.1 | – | 46.1 | – | – | – |
| CGCCGAGUGUUAGGAUAUCACAAGCAUAAGCGGUGAGAAGGAACAUGAGGAUCACCCAUGUACUGUCCCAUCGGGACAGGUUUC [Ribeon] (Eterna round: R96, puzzle: Exclusion NG 1) | 170 | 54 | 70.8 | – | – | – |
| CGCGAGGGAGGAUAUGCACUCAGUGAUCACGCCCAAAUUCGACAUGAGGAUCACCCAUGUAGAAGGCCCGGCUA [EX2 B.15] (Eterna round: R97, puzzle: Exclusion 2) | 21.1 | – | 19 | – | – | – |
| CGCUGGACAGGAUAUGUUCUUGGGCACUUGAGGAUCACCCAAGUCAUCGGGACAUCAGGCACAGAAGGGUUUAUGG [salish99_ex5_r4_026] (Eterna round: R97, puzzle: Exclusion 5) | 19.1 | – | 21.1 | – | – | – |
| CGGAUGUCAGGAUAUCGUGCAUACAACGAAAGUUCUAUGUGCGAGAAGGGACAUGAGGAUCACCCAUGUUUACG [Omei Ex4 A11] (Eterna round: R97, puzzle: Exclusion 4) | 206 | – | 34.9 | – | – | – |
